According to article PMC9873567 (2022):
Read-outs that look alike come from different tables or passages of the source.

What was measured:
[1] = molecular target: ERECTA (UniProt Q42371); experiment: anti-MYC co-IP, anti-HA blot
[2] = molecular target: T1, GST-PUB30 (Arabidopsis thaliana, UniProt Q058P4 1-448); experiment: BLI
T1 chain: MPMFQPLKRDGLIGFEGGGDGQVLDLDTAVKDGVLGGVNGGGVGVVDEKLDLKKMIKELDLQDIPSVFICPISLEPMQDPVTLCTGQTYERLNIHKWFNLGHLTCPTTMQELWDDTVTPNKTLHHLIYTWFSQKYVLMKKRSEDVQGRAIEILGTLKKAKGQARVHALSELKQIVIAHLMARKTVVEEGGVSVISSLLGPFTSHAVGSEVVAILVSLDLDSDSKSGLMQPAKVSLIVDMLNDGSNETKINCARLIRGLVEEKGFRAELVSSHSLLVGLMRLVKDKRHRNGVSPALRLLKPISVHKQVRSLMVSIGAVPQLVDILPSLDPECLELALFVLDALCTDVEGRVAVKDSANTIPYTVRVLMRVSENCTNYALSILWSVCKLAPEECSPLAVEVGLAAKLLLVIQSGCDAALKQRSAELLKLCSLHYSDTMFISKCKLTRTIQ

[3] = molecular target: T2, GST-PUB31 (Arabidopsis thaliana, UniProt Q9FHN9 1-444); experiment: BLI
T2 chain: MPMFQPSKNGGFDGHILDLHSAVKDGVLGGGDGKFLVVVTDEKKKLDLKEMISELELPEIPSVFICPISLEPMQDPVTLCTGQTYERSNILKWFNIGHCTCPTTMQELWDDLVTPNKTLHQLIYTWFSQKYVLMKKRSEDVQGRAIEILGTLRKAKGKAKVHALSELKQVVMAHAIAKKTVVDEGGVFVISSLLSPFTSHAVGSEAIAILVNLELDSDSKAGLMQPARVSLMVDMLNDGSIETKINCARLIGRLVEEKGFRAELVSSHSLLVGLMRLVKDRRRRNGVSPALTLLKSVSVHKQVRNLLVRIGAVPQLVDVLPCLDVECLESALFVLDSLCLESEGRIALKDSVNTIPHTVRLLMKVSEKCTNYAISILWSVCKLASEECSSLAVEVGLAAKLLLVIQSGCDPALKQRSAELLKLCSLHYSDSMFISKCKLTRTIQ

[4] = molecular target: T1, GST-PUB30; experiment: BLI
[5] = molecular target: T2, GST-PUB31; experiment: BLI

## PUB30 (from UniProt Q058P4) PUB30 T155A-MYC
[1]; reference: wild type PUB30-MYC, sites T155
  binding against the reference: weaker

## PUB31 (from UniProt Q9FHN9) PUB31 T151A-MYC
[1]; reference: wild type PUB31-MYC, sites T151
  binding against the reference: weaker

B1: MBP-ERECTA_CD (domain or fragment)
chain: CRPHNPPPFLDGSLDKPVTYSTPKLVILHMNMALHVYEDIMRMTENLSEKYIIGHGASSTVYKCVLKNCKPVAIKRLYSHNPQSMKQFETELEMLSSIKHRNLVSLQAYSLSHLGSLLFYDYLENGSLWDLLHGPTKKKTLDWDTRLKIAYGAAQGLAYLHHDCSPRIIHRDVKSSNILLDKDLEARLTDFGIAKSLCVSKSHTSTYVMGTIGYIDPEYARTSRLTEKSDVYSYGIVLLELLTRRKAVDDESNLHHLIMSKTGNNEVMEMADPDITSTCKDLGVVKKVFQLALLCTKRQPNDRPTMHQVTRVLGSFMLSEQPPAATDTSATLAGSCYVDEYANLKTPHSVNCSSMSASDAQLFLRFGQVISQNSE
[2]
  Kd: 15 µM
[3]
  Kd: 11 µM

B2: MBP-BAK1_CD (domain or fragment)
chain: AWWRRKKPQDHFFDVPAEEDPEVHLGQLKRFSLRELQVASDNFSNKNILGRGGFGKVYKGRLADGTLVAVKRLKEERTQGGELQFQTEVEMISMAVHRNLLRLRGFCMTPTERLLVYPYMANGSVASCLRERPESQPPLDWPKRQRIALGSARGLAYLHDHCDPKIIHRDVKAANILLDEEFEAVVGDFGLAKLMDYKDTHVTTAVRGTIGHIAPEYLSTGKSSEKTDVFGYGVMLLELITGQRAFDLARLANDDDVMLLDWVKGLLKEKKLEALVDVDLQGNYKDEEVEQLIQVALLCTQSSPMERPKMSEVVRMLEGDGLAERWEEWQKEEMFRQDFNYPTHHPAVSGWIIGDSTSQIENEYPSGPR
[4]
  Kd: 2.4 µM
[5]
  Kd: 2 µM
